Measurements reported in the supplement of paper PMC7125110.
± gives the standard error. Variants at the floor of the assay were thinned out.

B1: glmS ribozyme (parent)
chain: AUAAAAGCGCCAGAACUACAGAAAUGUAGUUGACGAGGAGGAGGUUUAUCGAAUUUUCGGCGGAUGCCUCCAAA

Key:
Conditions in all cases: with glucosamine-6-phosphate
glucosamine-6-phosphate [1] = variants of: B1; experiment: self-cleavage kobs at 640 uM GlcN6P; higher = faster cleavage; RNA array
How it was run: (§1)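 In situ transcription by E. coli RNA polymerase produced barcoded ribozyme variants on sequenced MiSeq chips, and a hybridised Cy3 probe tracked them at 37 °C. Glucosamine-6-phosphate was flowed in at 40 μM to 10 mM in HEPES/KCl/Mg(OAc)2 buffer. kcat and KM were taken from weighted Michaelis–Menten fits of kobs values from exponential decay fits.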

glucosamine-6-phosphate [2] = variants of: B1; experiment: self-cleavage kobs at 2500 uM GlcN6P; higher = faster cleavage; RNA array
How it was run: as §1

glucosamine-6-phosphate [3] = variants of: B1; experiment: self-cleavage kobs at 10000 uM GlcN6P; higher = faster cleavage; RNA array
How it was run: as §1

AUAAAAGCGCCAUAACUACAGAAAUGUAGUUAACGAGGAGGAGGUUUAUCGAAUUUUCGGCGGAUGCCUACAAA
self-cleavage kobs at 640 uM GlcN6P (glucosamine-6-phosphate [1]): 5.59e-05 ± 2.4e-05 s⁻¹ | self-cleavage kobs at 2500 uM GlcN6P (glucosamine-6-phosphate [2]): 0.000106 ± 3.2e-05 s⁻¹

AUAAAAGUGCCUGAACUACAGAAAUGUAGUUGACGAUGAGGAGGUUUAUCGAAUUUUCGGAGGUUGGCUCCAAA
self-cleavage kobs at 640 uM GlcN6P (glucosamine-6-phosphate [1]): 0.000544 ± 0.00022 s⁻¹

AUAAAAGCGCCCGAACUACAGAAAUGUAGUUAACGAGGAGGAGGUUUAUCGAAUUUUCGGCGGGUGCCUCAAAA
self-cleavage kobs at 640 uM GlcN6P (glucosamine-6-phosphate [1]): < 1e-05 s⁻¹

AUAAAAGCGCCAAAACUACAGAAAUGUAGUUGACGAGGAAGAGGUUUAUCGAAUUUUCGGCAGAUGCCUCCAAA
self-cleavage kobs at 640 uM GlcN6P (glucosamine-6-phosphate [1]): < 1e-05 s⁻¹ | self-cleavage kobs at 2500 uM GlcN6P (glucosamine-6-phosphate [2]): < 1e-05 s⁻¹

AUAAAAGCGCUAGAACUACAGAAAUGUAGUUGACGAGGAGGAGGUUUAUCGAAUUAUCGGCGGAUGCCUGCAAA
self-cleavage kobs at 640 uM GlcN6P (glucosamine-6-phosphate [1]): 0.000217 ± 5.8e-05 s⁻¹ | self-cleavage kobs at 2500 uM GlcN6P (glucosamine-6-phosphate [2]): 0.000145 ± 3e-05 s⁻¹

AUAAAAGCGGCUGAACUACAGAAAUGUAGUUGACGAGGAGGAGGUAUAUCGAAUUUUCGGCGGAUGCCUCCAAA
self-cleavage kobs at 640 uM GlcN6P (glucosamine-6-phosphate [1]): < 1e-05 s⁻¹

AUAAAAGCGCCCGAACUACAGAAAUGUAGUUGACGAGGAGGAGGUUUAUCGUAUUUUCGGCGGAUGCCUCUAAA
self-cleavage kobs at 640 uM GlcN6P (glucosamine-6-phosphate [1]): 4.93e-05 ± 1.4e-05 s⁻¹ | self-cleavage kobs at 2500 uM GlcN6P (glucosamine-6-phosphate [2]): 0.000116 ± 2.4e-05 s⁻¹

AUAAAUGUGCCAGAUCUACAGAAAUGUAGUUCAAGAGGAGGAGGUUUAUCGAAUUUUCGGGGGAUGCCUCCAAA
self-cleavage kobs at 640 uM GlcN6P (glucosamine-6-phosphate [1]): < 1e-05 s⁻¹

AUAAAAGCGCCUGAACUACAGAAAUGUAGUUGACGAGGAGGGGGUUUAUCGAAUUUUCGGCGGAUGCCUGCAAA
self-cleavage kobs at 640 uM GlcN6P (glucosamine-6-phosphate [1]): 0.000705 ± 0.00032 s⁻¹ | self-cleavage kobs at 2500 uM GlcN6P (glucosamine-6-phosphate [2]): 0.00109 ± 0.00041 s⁻¹

AUAAAAGCGCCAGAACUACAGAAAUGUAGUUGAUGAGGAGGACGUUUAUCGAAUUUUCGGCGGAUGCCUCCAAA
self-cleavage kobs at 640 uM GlcN6P (glucosamine-6-phosphate [1]): < 1e-05 s⁻¹

AUAAACGCGCCAGAAGUACAGAAAUGUAGUUGACGACGGGGAGGGUAAUCGAAUUUUCGGCGGAUGCCUCCAAA
self-cleavage kobs at 640 uM GlcN6P (glucosamine-6-phosphate [1]): < 1e-05 s⁻¹ | self-cleavage kobs at 2500 uM GlcN6P (glucosamine-6-phosphate [2]): < 1e-05 s⁻¹

AUAAAAGCGCCAGAACUACAGAAAUGUAGUUGACGAGGAGUAGGUUGAUGGAAUUUUCGGCGGAUGCCUCCAAA
self-cleavage kobs at 640 uM GlcN6P (glucosamine-6-phosphate [1]): < 1e-05 s⁻¹

AUAAAAGCGCCAGAACUACAGAAAUGUAGUUGACGAGGAGGAGGUGUAUCGACUUUUCGGCGGAUGUCUCCAAA
self-cleavage kobs at 640 uM GlcN6P (glucosamine-6-phosphate [1]): 7.34e-05 ± 2.7e-05 s⁻¹ | self-cleavage kobs at 2500 uM GlcN6P (glucosamine-6-phosphate [2]): 0.000252 ± 8.5e-05 s⁻¹

AUAAAAGCGCCAGAACUACAGAAAUGUAAGUGACGAGGAGGAGGUUUAUCGGAUUUUCGGCGGAUGCCUCCAAA
self-cleavage kobs at 640 uM GlcN6P (glucosamine-6-phosphate [1]): 7.23e-05 ± 1.9e-05 s⁻¹ | self-cleavage kobs at 2500 uM GlcN6P (glucosamine-6-phosphate [2]): 0.000399 ± 9.4e-05 s⁻¹

AUAAAAGCGCCAGAACUACAGAAAUGUAGUUGACGUGGAGGAGGUUUAUCGAAUUUUCGGGGGAUGCCUACAAA
self-cleavage kobs at 640 uM GlcN6P (glucosamine-6-phosphate [1]): 0.000101 ± 3e-05 s⁻¹

AUAAAAGCGCCAGAACUACAGAAAUGUAGUUGACGAGGAGAAGGUUUAUCGAAUUUUUGGCGGAUGCCUGCAAA
self-cleavage kobs at 640 uM GlcN6P (glucosamine-6-phosphate [1]): < 1e-05 s⁻¹ | self-cleavage kobs at 2500 uM GlcN6P (glucosamine-6-phosphate [2]): < 1e-05 s⁻¹

AUAAAAACGCCAGAACUACAGAAAUGUAGUUGACGAGGAGGAUGUUUAGCGAAUUUUCGGCGCUUGCCUCCAAA
self-cleavage kobs at 640 uM GlcN6P (glucosamine-6-phosphate [1]): < 1e-05 s⁻¹ | self-cleavage kobs at 2500 uM GlcN6P (glucosamine-6-phosphate [2]): < 1e-05 s⁻¹

AUAAAAGCGCCAGAACUACAGAAAUGUAGUUGAAGAGGAGGAAGUUUAUCCAAUUGUCGGCGGAUGCCUCCAAA
self-cleavage kobs at 640 uM GlcN6P (glucosamine-6-phosphate [1]): < 1e-05 s⁻¹

AUAAAAGCCCCAGAACUACAGAAAUGUAGUUGACGAGGAGGAGGUUUAUCGAAUUUUCGGCGGUUCCCUUUAAA
self-cleavage kobs at 640 uM GlcN6P (glucosamine-6-phosphate [1]): < 1e-05 s⁻¹

AUAAAAACGCCAGAACUACAGAAAUGUAGUGGACGAGGAGGAGGUUUAUCGAAUUUUCGGCGGAUGUCUCCAAA
self-cleavage kobs at 640 uM GlcN6P (glucosamine-6-phosphate [1]): < 1e-05 s⁻¹

AUAAAAGCGCCAGGACUACAGAAAUGUAGUUGACGAGGAUCAGGUUUAUCGAAUUUUCGGCGGAUGCCUCCAAA
self-cleavage kobs at 640 uM GlcN6P (glucosamine-6-phosphate [1]): 7.7e-05 ± 1.5e-05 s⁻¹ | self-cleavage kobs at 2500 uM GlcN6P (glucosamine-6-phosphate [2]): 0.00015 ± 3.4e-05 s⁻¹

AUAAAAGCGCCAGAACUACAGAAAUGUAGUUGUCGAGGAGGAGGUUUAUCGAAAUUUCGCCGGAUGCCUCCAAA
self-cleavage kobs at 640 uM GlcN6P (glucosamine-6-phosphate [1]): < 1e-05 s⁻¹ | self-cleavage kobs at 2500 uM GlcN6P (glucosamine-6-phosphate [2]): < 1e-05 s⁻¹

AUAAAAGCGCCAGCGCUACAGAAAUGUAGUUGACGACGAGGAGGUUUACCGAAUUUUCGGCGGAUGCCUCCAAA
self-cleavage kobs at 640 uM GlcN6P (glucosamine-6-phosphate [1]): < 1e-05 s⁻¹

AUAAAAGCGCCAGAACUACAGAAAUGUAGUUGACGAAGAGGAGGUUUAUCGAGUUUUCGGCGGGUGCCUCCAAA
self-cleavage kobs at 640 uM GlcN6P (glucosamine-6-phosphate [1]): 0.000552 ± 9.7e-05 s⁻¹ | self-cleavage kobs at 2500 uM GlcN6P (glucosamine-6-phosphate [2]): 0.00103 ± 0.0003 s⁻¹ | self-cleavage kobs at 10000 uM GlcN6P (glucosamine-6-phosphate [3]): 0.00293 ± 0.0007 s⁻¹

AUAAAUGCCCCAGAACUACAGAAAUGUAGUUGACGAGGAGGAGGUUUAUCGUAUUUUCGGCGGAUGACUUCAAA
self-cleavage kobs at 640 uM GlcN6P (glucosamine-6-phosphate [1]): < 1e-05 s⁻¹
